Laboratory results taken from paper PMC7393090.

Molecular target: tau Venus BiFC constructs (UniProt P10636)
Assay: split reporter (BiFC, NanoBiT); Venus BiFC; co-culture of HEK293 cells transfected with the VN construct and cells transfected with the VC construct (50,000 cells each per ml, 48 h); flow cytometry, cells above 120 fluorescence units are positive; also run after treatment with anle138b 1 µM, EGCG 0.1 µM, fulvic acid 37 µM or dynasore 10 µM

## tau Venus BiFC constructs (from UniProt P10636 1-758) (natural protein)
  percent of BiFC positive cells (co-culture): 3.9%
